The supplement of paper PMC11136658

Tested on: peptide library, one residue held at a place counted from the Y acceptor
Test: relative phosphorylation of the sub-library (ratio to the mean residue at this position); higher = residue favoured
How it was run: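 Biotinylated Tyr-centred peptide library mixtures, each fixing one residue at one position from −5 to +5, were incubated with purified recombinant kinases in 384-well plates for 90 min with 50 μM ATP plus γ-32P-ATP. Streptavidin membranes captured the peptides, which were rinsed and quantified by phosphorimaging and ImageQuant. At each position, intensities were divided by the sum of the 18 randomized residues (16 for the Ser/Thr-free library) and multiplied by that number. Each value is phosphorylation relative to the mean randomized residue.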

Chain of INSR, construct: aa1110-end, human (P06213 1110-1382, looked up): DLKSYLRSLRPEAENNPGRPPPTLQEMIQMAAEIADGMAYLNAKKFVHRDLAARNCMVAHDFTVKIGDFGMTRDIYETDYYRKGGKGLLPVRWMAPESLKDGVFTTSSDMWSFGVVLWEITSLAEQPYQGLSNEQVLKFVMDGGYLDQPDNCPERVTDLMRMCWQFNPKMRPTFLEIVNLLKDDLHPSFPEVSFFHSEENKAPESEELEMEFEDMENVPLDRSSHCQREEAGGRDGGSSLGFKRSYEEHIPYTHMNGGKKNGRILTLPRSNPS

INSR, construct: aa1110-end, human (from UniProt P06213)
relative phosphorylation
Settings | at +1 | at +2 | at +3 | at +4 | at +5 | at -1 | at -2 | at -3 | at -4 | at -5
A fixed | 1.55 | 0.678 | 0.593 | 0.95 | 0.917 | 1.09 | 1.09 | 0.925 | 1.09 | 1.07
D fixed | 0.383 | 0.584 | 0.264 | 1.04 | 0.792 | 2.65 | 1.14 | 1.34 | 1.3 | 1.14
E fixed | 0.627 | 1.31 | 0.234 | 0.976 | 0.731 | 1.14 | 1.26 | 1.48 | 1.31 | 0.983
F fixed | 1.41 | 1.13 | 1.62 | 1.02 | 1.56 | 0.696 | 0.621 | 0.912 | 1.03 | 0.834
G fixed | 0.731 | 0.419 | 0.545 | 0.809 | 0.858 | 0.554 | 1.24 | 0.872 | 1.36 | 1.23
H fixed | 1.67 | 0.915 | 1.47 | 1.16 | 1.17 | 1.16 | 0.95 | 1.11 | 0.965 | 0.975
I fixed | 1.21 | 1.16 | 1.92 | 0.902 | 0.978 | 1.04 | 0.87 | 0.616 | 0.817 | 0.935
K fixed | 0.275 | 0.602 | 0.475 | 0.951 | 0.919 | 0.27 | 0.8 | 0.861 | 0.835 | 1.11
L fixed | 0.986 | 1.35 | 1.61 | 0.841 | 1.14 | 0.981 | 0.957 | 0.867 | 0.879 | 0.913
M fixed | 2.41 | 1.53 | 1.74 | 1.16 | 1.08 | 0.789 | 0.743 | 0.929 | 0.804 | 0.976
N fixed | 0.312 | 0.941 | 0.347 | 0.762 | 0.813 | 2.16 | 1.25 | 1.51 | 0.939 | 1.22
P fixed | 0.317 | 0.706 | 0.421 | 0.704 | 1.05 | 1.04 | 1.29 | 0.905 | 1.17 | 0.956
Q fixed | 0.805 | 0.811 | 0.46 | 1.19 | 0.806 | 0.747 | 1.22 | 1.06 | 1.22 | 1.1
R fixed | 0.227 | 0.868 | 0.706 | 0.953 | 1.02 | 0.266 | 0.831 | 0.913 | 0.913 | 1.13
S fixed | 0.926 | 0.804 | 0.534 | 1.07 | 1.04 | 0.901 | 1.18 | 1.09 | 0.814 | 0.896
T fixed | 0.946 | 0.781 | 0.673 | 0.843 | 0.84 | 0.97 | 1.08 | 0.941 | 0.731 | 0.828
V fixed | 1.45 | 1.08 | 1.13 | 0.968 | 0.937 | 0.989 | 0.796 | 0.698 | 0.746 | 0.798
W fixed | 1.76 | 2.34 | 3.26 | 1.69 | 1.35 | 0.558 | 0.684 | 0.978 | 1.08 | 0.902
pThr fixed | 1.28 | 0.717 | 0.229 | 0.55 | 0.612 | 1.28 | 1.01 | 1.11 | 1.09 | 0.769
pTyr fixed | 1.36 | 2.45 | 0.487 | 1.48 | 0.585 | 4.11 | 1.68 | 1.51 | 1.28 | 0.991
